Patent publication US9211312 (VOLUTION IMMUNO PHARMACEUTICALS, dated 2015)

Columns and labels:
[1] = molecular target: human complement C5 (in human serum) (human, UniProt P01031 19-1676); assay: cell-based or functional assay
[2] = molecular target: rat complement C5 (in rat serum) (rat, UniProt P08650 19-1681); assay: cell-based or functional assay
[3] = molecular target: mouse complement C5 (in mouse serum) (mouse, UniProt P06684 19-1680); assay: cell-based or functional assay
complement C5 = molecular target: T1, complement C5 (Homo sapiens (Human), UniProt P01031 19-673; P01031 678-1676, The beta and alpha chains of native C5 are linked by a disulfide bond. The native protein is glycosylated.); assay: direct binding to C5 (FIG. 4C); method not described
T1 construct: also called complement protein C5

human complement C5 (in human serum), sequence (P01031 19-1676 limits assumed): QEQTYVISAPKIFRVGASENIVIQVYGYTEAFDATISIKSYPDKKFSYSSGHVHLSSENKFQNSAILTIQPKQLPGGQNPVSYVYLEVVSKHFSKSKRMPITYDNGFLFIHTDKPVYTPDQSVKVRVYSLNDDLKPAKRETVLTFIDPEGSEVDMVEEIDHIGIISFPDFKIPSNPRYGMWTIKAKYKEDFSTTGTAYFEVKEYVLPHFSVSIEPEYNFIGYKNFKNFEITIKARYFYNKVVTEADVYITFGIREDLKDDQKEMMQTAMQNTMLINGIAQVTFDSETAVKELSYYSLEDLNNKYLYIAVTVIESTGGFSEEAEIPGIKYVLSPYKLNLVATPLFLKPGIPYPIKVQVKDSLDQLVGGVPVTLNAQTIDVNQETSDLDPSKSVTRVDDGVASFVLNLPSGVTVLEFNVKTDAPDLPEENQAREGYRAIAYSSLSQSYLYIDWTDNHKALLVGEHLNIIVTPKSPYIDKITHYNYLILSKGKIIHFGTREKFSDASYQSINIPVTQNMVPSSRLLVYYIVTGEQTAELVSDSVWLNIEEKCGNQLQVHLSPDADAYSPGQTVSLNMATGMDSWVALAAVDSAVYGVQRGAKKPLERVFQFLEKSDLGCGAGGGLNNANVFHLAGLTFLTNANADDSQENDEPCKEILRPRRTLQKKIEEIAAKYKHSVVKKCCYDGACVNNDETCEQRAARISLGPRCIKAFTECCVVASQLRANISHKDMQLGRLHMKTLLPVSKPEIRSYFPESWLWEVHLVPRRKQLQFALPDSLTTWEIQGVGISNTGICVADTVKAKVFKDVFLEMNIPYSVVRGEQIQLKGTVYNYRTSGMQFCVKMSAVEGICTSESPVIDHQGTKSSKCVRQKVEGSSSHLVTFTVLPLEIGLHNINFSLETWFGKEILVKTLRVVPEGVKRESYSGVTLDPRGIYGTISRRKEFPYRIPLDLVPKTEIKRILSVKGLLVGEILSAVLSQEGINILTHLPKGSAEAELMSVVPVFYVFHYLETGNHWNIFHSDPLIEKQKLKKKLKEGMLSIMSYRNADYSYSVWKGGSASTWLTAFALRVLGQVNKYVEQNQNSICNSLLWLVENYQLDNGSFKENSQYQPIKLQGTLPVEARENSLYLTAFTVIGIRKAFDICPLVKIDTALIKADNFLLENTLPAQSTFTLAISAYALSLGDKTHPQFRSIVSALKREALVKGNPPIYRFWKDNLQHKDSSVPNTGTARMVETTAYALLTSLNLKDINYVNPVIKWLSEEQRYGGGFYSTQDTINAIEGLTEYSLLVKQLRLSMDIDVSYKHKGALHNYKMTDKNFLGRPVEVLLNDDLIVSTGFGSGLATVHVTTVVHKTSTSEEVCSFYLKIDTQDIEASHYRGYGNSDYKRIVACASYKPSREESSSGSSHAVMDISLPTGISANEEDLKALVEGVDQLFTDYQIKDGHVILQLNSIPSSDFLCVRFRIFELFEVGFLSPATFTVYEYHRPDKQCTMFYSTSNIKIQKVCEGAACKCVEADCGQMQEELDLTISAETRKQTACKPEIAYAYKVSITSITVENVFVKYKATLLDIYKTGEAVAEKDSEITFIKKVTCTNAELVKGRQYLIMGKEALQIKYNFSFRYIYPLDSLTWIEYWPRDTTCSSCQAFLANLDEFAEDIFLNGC
rat complement C5 (in rat serum), sequence (P08650 19-1681 limits assumed): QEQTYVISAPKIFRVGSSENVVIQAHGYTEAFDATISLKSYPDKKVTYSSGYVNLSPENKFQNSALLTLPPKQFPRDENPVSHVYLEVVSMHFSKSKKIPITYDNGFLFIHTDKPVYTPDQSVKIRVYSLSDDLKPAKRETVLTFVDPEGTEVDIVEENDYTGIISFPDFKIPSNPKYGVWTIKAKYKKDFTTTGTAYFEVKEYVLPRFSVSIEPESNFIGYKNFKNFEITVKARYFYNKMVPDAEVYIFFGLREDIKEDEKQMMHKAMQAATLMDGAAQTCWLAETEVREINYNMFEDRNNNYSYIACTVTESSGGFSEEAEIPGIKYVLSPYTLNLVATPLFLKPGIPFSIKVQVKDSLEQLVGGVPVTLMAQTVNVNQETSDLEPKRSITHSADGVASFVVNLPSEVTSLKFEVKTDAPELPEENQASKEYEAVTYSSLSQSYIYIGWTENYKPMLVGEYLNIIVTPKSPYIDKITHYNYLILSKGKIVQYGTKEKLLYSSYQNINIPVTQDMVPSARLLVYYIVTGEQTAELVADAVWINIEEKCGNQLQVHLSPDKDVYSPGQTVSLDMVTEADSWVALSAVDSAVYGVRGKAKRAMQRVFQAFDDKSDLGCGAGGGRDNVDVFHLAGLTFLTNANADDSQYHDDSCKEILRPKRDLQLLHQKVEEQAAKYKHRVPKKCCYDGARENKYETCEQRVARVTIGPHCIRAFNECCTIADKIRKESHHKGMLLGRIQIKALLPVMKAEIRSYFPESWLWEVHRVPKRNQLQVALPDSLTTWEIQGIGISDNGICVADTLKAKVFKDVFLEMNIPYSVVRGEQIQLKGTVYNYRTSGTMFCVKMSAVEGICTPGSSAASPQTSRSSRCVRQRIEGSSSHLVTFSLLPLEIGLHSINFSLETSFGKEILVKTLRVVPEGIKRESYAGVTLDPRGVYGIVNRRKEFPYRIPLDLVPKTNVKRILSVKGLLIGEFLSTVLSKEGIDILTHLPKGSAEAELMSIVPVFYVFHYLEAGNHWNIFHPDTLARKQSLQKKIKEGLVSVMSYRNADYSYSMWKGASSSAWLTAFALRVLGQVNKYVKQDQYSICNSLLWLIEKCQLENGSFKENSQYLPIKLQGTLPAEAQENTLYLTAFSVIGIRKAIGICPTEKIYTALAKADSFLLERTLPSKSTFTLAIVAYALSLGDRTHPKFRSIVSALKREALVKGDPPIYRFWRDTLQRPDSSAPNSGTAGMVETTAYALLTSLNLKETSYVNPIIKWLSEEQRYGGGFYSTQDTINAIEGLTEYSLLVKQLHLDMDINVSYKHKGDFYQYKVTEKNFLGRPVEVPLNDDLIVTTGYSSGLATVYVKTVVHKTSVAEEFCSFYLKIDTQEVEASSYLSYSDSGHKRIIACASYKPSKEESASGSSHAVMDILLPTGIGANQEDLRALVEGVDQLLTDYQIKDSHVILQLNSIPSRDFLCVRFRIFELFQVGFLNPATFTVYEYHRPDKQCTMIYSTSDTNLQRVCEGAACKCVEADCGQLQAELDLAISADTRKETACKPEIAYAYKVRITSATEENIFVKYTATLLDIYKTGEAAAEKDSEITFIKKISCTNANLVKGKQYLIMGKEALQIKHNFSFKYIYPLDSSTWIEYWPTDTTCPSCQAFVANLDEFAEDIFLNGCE
mouse complement C5 (in mouse serum), sequence (P06684 19-1680 limits assumed): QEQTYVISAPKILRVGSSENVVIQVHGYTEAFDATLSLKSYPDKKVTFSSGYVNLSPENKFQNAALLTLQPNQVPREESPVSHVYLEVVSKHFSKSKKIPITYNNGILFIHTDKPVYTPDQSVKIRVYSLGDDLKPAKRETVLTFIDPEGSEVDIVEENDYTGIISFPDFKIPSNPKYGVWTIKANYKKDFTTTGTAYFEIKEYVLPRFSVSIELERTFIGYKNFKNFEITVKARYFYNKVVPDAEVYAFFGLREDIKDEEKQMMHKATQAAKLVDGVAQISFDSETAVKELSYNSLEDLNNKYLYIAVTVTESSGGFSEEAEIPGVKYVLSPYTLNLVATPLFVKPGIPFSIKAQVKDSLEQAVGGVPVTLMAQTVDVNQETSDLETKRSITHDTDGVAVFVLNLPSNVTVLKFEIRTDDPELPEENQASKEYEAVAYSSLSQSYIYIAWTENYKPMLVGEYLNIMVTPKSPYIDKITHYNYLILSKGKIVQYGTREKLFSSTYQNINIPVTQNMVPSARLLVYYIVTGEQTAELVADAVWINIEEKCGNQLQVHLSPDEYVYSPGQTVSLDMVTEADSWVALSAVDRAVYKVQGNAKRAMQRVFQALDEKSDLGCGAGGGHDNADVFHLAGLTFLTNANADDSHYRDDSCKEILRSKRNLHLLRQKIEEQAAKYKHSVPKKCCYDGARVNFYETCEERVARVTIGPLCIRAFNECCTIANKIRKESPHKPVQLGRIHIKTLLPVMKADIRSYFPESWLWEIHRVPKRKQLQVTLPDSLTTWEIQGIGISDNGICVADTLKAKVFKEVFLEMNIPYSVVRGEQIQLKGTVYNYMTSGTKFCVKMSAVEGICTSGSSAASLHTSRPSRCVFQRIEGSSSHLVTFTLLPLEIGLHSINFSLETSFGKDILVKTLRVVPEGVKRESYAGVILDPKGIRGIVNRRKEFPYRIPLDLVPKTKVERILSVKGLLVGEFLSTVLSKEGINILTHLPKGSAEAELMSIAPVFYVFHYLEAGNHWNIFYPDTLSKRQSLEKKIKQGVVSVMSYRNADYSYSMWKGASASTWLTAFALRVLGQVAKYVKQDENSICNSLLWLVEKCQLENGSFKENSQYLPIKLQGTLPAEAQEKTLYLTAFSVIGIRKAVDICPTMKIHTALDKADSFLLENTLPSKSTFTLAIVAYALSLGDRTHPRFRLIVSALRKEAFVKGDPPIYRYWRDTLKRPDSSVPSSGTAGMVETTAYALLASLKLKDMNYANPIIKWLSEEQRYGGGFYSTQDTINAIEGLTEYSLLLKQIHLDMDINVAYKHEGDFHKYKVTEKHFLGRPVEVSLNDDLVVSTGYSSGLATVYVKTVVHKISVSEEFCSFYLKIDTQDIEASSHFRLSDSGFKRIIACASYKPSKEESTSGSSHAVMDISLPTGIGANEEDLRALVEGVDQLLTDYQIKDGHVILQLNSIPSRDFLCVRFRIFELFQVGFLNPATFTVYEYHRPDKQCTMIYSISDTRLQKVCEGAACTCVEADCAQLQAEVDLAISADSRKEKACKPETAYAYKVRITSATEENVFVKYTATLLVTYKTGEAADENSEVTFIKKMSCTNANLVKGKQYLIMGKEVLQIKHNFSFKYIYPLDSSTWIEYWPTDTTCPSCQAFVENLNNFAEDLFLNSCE

B1: EV576 protein, native, purified from salivary gland extracts of the soft tick Ornithodoros moubata (other)
chain: DSESDCTGSEPVDAFQAFSEGKEAYVLVRSTDPKARDCLKGEPAGEKQDNTLPVMMTFKNGTDWASTDWTFTLDGAKVTATLGNLTQNREVVYDSQSHHCHVDKVEKEVPDYEMWMLDAGGLEVEVECCRQKLEELASGRNQMYPHLKDC
~20 µg/mL: IC50, binding of C5 and prevention of its cleavage by C5 convertase in serum [1] | IC50, binding of C5 and prevention of its cleavage by C5 convertase in serum [2] | IC50, binding of C5 and prevention of its cleavage by C5 convertase in serum [3] | IC50 (complement C5)
